Reference: publication PMC10659578, “Mechanism of stepwise electron transfer in six-transmembrane epithelial antigen of the prostate (STEAP) 1 and 2” (eLife, 2023)

Tests used:
[1] = target: Rabbit six-transmembrane epithelial antigen of the prostate 1 (STEAP1) (rabbit); test: BLI; STEAP1 immobilised on amine reactive second-generation biosensors (EDC/Sulfo-NHS); b5R at 20, 10, 5, 2.5, 1.3 and 0.6 uM; 30 C, 1000 rpm; 20 mM HEPES pH 7.5, 150 mM NaCl, 0.1% LMNG, 0.1% BSA; KD from equilibrium responses (Req) against [b5R]
[2] = target: Rabbit six-transmembrane epithelial antigen of the prostate 1 (STEAP1) (rabbit)

B1: Mouse cytochrome b5 reductase, soluble form (residues 24-301) (enzyme)
chain: SKVPLKQGRSLMDWIRLTKSGKDLTGLKGGLIEVTEEELKKHNKKEDCWICIRGFVYNVSPYMEYHPGGEDELMRAAGADGTDLFNEVHRWVNYESMLKECLVGRMAVKPAVPKDCHEGKRVLNGMLPKSQMSDTLPRDVTDTLPREDLSSPSYDWFQTESSVTIVVYTKQKNISLDSVIVDLQDDSLRAEAVIKDHSYLVHVGLSHEVQENFSVRVIENVGKIEIVLQKKESVSWQCLGDHLEKHDSFIPKKDTGLYYRRCQLISKEDVTHDTRLFC
With B1 the Kd [1] was 5.9 µM and the rate constant of the B to C conversion (reduction of the heme of 1.5 uM STEAP1 pre-incubated with 1.5 uM b5R after mixing with 10 uM NADH; rapid-scan stopped flow, anaerobic) [2] was 0.13 s^–1.
